Tests used:
[1] = target: human CX3CR1 (human) (UniProt P49238); test: flow cytometry, chimeric CX3CR1-expressing Ba/F3 cells, 200 nM, grade vs positive antibody (+++ >70%, ++ 40-70%, + 10-40%, - <10%)
[2] = target: mouse CX3CR1 (mouse) (UniProt Q9Z0D9); test: flow cytometry, chimeric CX3CR1-expressing Ba/F3 cells
[3] = target: mouse CX3CR1 (mouse) (UniProt Q9Z0D9); test: flow cytometry, chimeric CX3CR1-expressing Ba/F3 cells, 200 nM, grade vs positive antibody (+++ >70%, ++ 40-70%, + 10-40%, - <10%)
[4] = target: human CX3CR1 (human) (UniProt P49238); test: flow cytometry, chimeric CX3CR1-expressing Ba/F3 cells
[5] = target: mouse CX3CR1 (mouse) (UniProt Q9Z0D9); test: flow cytometry, CX3CR1-expressing Ba/F3 cells, 200 nM, grade vs positive antibody (+++ >70%, ++ 40-70%, + 10-40%, - <10%); this antibody is itself the 100% reference
[6] = target: rat CX3CR1 (rat) (UniProt P35411); test: as above
[7] = target: cynomolgus monkey CX3CR1 (cynomolgus monkey); test: flow cytometry, CX3CR1-expressing Ba/F3 cells
[8] = target: human CX3CR1 (human) (UniProt P49238); test: flow cytometry, CX3CR1-expressing Ba/F3 cells

Sequence of mouse CX3CR1 (mouse) (Q9Z0D9 whole entry): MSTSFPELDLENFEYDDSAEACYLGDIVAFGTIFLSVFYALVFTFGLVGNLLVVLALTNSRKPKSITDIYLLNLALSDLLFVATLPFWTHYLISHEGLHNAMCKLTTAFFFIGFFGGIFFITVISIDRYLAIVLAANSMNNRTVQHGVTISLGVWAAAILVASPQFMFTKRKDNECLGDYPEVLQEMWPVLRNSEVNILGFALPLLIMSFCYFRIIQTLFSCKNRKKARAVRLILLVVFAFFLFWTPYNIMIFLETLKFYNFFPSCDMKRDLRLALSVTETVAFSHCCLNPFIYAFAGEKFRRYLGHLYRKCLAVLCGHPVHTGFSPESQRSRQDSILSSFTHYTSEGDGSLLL
Sequence of human CX3CR1 (human) (P49238 whole entry): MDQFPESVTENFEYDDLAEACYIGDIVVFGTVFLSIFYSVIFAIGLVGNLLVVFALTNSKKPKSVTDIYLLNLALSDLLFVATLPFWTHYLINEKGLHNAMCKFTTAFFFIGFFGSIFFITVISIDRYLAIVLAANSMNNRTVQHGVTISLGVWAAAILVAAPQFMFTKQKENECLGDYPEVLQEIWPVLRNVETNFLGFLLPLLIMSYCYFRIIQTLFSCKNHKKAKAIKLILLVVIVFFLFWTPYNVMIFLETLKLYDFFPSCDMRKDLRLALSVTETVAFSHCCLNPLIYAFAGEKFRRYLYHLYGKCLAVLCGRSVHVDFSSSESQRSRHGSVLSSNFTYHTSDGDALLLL
Sequence of rat CX3CR1 (rat) (P35411 whole entry): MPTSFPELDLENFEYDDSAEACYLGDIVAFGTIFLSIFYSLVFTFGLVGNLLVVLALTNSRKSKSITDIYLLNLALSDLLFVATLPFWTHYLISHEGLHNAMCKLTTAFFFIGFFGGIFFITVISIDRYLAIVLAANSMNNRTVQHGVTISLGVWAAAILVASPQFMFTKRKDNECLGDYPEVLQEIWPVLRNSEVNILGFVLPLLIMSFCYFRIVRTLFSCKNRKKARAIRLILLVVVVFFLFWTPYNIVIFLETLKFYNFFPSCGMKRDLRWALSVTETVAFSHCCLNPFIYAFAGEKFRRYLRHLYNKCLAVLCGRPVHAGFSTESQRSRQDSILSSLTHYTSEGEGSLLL

Row | Substance | relative value (% reactivity, MFI) compared to positive antibody at 200 nM [1] [%] | relative value (% reactivity, MFI) compared to positive antibody at 200 nM [2] [%] | relative value (% reactivity, MFI) compared to positive antibody at 200 nM [3] [%] | relative value (% reactivity, MFI) compared to positive antibody at 200 nM [4] [%] | relative value (% reactivity, MFI) compared to positive antibody at 200 nM [5] [%] | relative value (% reactivity, MFI) compared to positive antibody at 200 nM [6] [%] | relative value (% reactivity, MFI) compared to positive antibody at 200 nM [7] [%] | relative value (% reactivity, MFI) compared to positive antibody at 200 nM [8] [%]
1 | anti-hCX3CR1 antibody K0124E1 (Biolegend) | 40 to 70 | < 10 | – | – | – | – | – | –
2 | anti-mouse CX3CR1 antibody SA011F11 (Biolegend) | – | – | > 70 | < 10 | > 70 | > 70 | < 10 | < 10
